{
  "source": "a protein production outcome set (Wang et al. 2014)",
  "data": [
    {"test": "label from the status in PepcDB records", "values": [
      {"sequence": "MSLSGPRVERLEVSAYTVPTDYPESDGTLQWDSTTMILVEAHGGGRKGLGYTYGDVSVGRFVESKLAGVAEGSDALSPPAVWARMQAAIRNAGRPGVGAMAVSAVDIALWDLKARLLGLPLADALPRFHAEVPVYGSGGFTSYPLRRLQEQLGGWAAAGIPRVKMKVGREPEKDPERVRAAREAIGESVELMVDANGAYTRKQALYWAGAFAREAGISYLEEPVSSEDREGLRLLRDRGPGGVAIAAGEYEWTLPQLHDLAGCVDILQADVTRCGGITGLLRVDGICRGHQIPFSAHCAPAVSAHACCAVESLLHLEYFHDHARVERLLFDGTLDPEGGSLRPDPDRPGLGLELKRSEAGKYAAEGHHHHHH", "protein production": "not failed"},
      {"sequence": "MSLSGTLIGAAAGGTVGLVASIYRDSKRKIIRDLQKQDIQYVEYGDTRTLIIPTDKYFMFSSPRLNEICYPGLNNVIRLLNFYPQSTIYVAGFTDNVGSRSHKRKLSQAQAETMMTFLWANGIAAKRLKAEGYGDKNAISDNAIIHGSAQNRRIEIQWFTSEGHHHHHH", "protein production": "not failed"},
      {"sequence": "MSLSGVSHVSLTVRDLDISCRWYTEILDWKELVRGRGDTTSFAHGVLPGGLSIVLREHDGGGTDLFDETRPGLDHLSFSVESMTDLDVLEERLAKAGAAFTPTQELPFGWILAFRDADNIALEAMLGREGHHHHHH", "protein production": "not failed"},
      {"sequence": "MSLSIVENGRKLESTIDFSRFAQEIKQNGWKIMLAGLIVAVVAYPLISMITPKYVSTATVLLKAQQDNVSPLPQVDGYDSTRSGYYETQYALMQSRIVLEQAVRDIKLDQNPAFNGDTDKNADHRGDEQQRVDHALDSIVKNLTITGVRTTHLATISYESASPELAADIANGAAQAFIDYTARQKHLKTLKAKALNQKQMEEVWQQVVEQQAAIDQFLKKEGLLTFRGVDGFETEQLGIVTTKLADATQRRIRAETNDNSVRSNAGTSLENIISLPDISNHAQIQDLRIALIQARRSLYDLRKRYGVKHTKILEAEAQVQAIEEQTHTVLLELKAGLNKQYQAALRDEKYYQQLLEQQKVDFQTLASKRDEYNNLTTALNKTKELYKALYQRTKEQTLAGNYLEPDAILYDPAVPADHPSKPNKAMLLVMVVMLTLIFSVVYFIVRAALDNSINSISQMKKRLNVAPVGEIRTFASGVERSKVVRLITKAPLDVDIVHSMRTHILLSHPSCQAIAISSAEHGEGRSLLAHLLARSFSADQKTLLIDLDFFNDGGLTQDLANPSAIGVAELLQGQSPLDAALVIISENLSFLPRGNAVMSSLLMLSSEHVVTLMAELRTRYQRIIVDVAAVNQTQDSQLISRVIDGVVFVLKAGEWRAGDVLNAIDKVKQHRAVLIGAVMNRVADKNLETKEGIRSLNHRMNALINSTGHL", "protein production": "failed"},
      {"sequence": "MSLSRPLLFALTALSLTAASLAHAADKKAADKPAPSAVSKADKALHDKFLTLDTHLDTPAHFGRPGWDIADHHEVEHDFSQVDLPRMNQGGLDGGFFVVYIGQGELTEKGYTYARDYALHRTIEIREMLAANPDTFEMALTSDDARRIAKAGKKFAFVSMENSWPVGEDLSLVETFYKEGLRMAGPVHFRNNQLADSSTDPKGKIWNGYSPLGLRWLAEANRLGIVIDVSHASDDVVDQSVALSKAPIIASHSGPKAVYDHPRNLDDARLKKIADAGGAICINSIYLTDTTPSPERKAALEALGRAPDMKTATPEAVKAYADKRAAIDKAHPAARGDFDLYMKSMLHVLKVAGPKGVCVGADWDGGGGMDGFEDITDLPKITARLKAEGYSDADIEAIWSGNVLRIVDAAQAYAKSVTKEGHHHHHH", "protein production": "not failed"},
      {"sequence": "MSLSSEVVLMKPYEKLVERFNEMAAEFLSYFPTVKSVGNLESELDKRRFVILFRAMLRLRNEVKGYNEFDAEDLTIEEQRFADYQSKYLDMSNEFAITSEKEDAESILQDIDFELELVHRDIINVMYILALLQDLKPESSSYPKDRKAVLDTMDSNPELRSKIALIDNFIKLHIDGRQSNDLPADMESDLDKYIATQKAIAIEQVATEEGIDSTLLHEYISEYEYLGKPKNEGHHHHHH", "protein production": "not failed"},
      {"sequence": "MSLSVLDAPASQPCCPTGVTPEPSSRGPSARRVALLLAGALVAWIVAYAAAHPLSRWLTFGLLGLAEGSHLGESLAFFLYDVPKVLLLLTLIVFLVGIVRSFFTAERTRAILVGKRESVGNVVAALLGVVTPFCSCSAIPLFLGFVEVGVPLGVTFSFLVSAPMVNEVALVLLLGLFGWKVAALYLVTGLTIAILAGFVLGRMKLERHVEPWVYESMKGEARFEKEHLGFAGRVERGLQAVREVVGKVWPWVVAGIAVGAGIHGYVPEGLLASFMGKSAWWSVPAAVALGVPMYSNAAGIIPVVEALLGKGAALGTVLAFMMAVIGLSLPEIVILRKVLRPPLILAFVGVVASGILLVGWLFNAVL", "protein production": "failed"},
      {"sequence": "MSLSVTIVMIEDDLGHARLIEKNIRRAGVNNEIIAFTDGTSALNYLFGDDKSGRVSAGRAQLVLLDLNLPDMTGIDILKLVKENPHTRRSPVVILTTTDDQREIQRCYDLGANVYITKPVNYENFANAIRQLGLFFSVMQVPETEGHHHHHH", "protein production": "not failed"},
      {"sequence": "MSLTAIHRPTWVSVDLDAAAHNLQEIREWTKAKKVYAVLKADGYGLGAIPLAKAFQETASADALIVSNLDEALELRQADLTLPIWVLGAWDYSDLKLFIDHDIVITIPSLAWLQNLPDFEGTLKVSLAIDTGMTRIGFDKADEISAAKKIIDKNPQLDLFSVYTHFATADEAGEKSKAYFEEQLRRWQELTINQGFDPSLFSMANSATCIWHHDDPRISFAAIRPGQLISGVNVSNGELKMPPNLHLERIFSVCSEIADVRFVKKDQSLSYGASERMPEDGYVATLPFGYNDGWLRRMQKSSVIINGKRMPIIGRITMDQTMVKLDRKYPIGTRVTLIGKDGGEQITVEEVANYSHTIVDEIQTTLAPRIKRIYTGDLAEVIGANYGEGHHHHHH", "protein production": "not failed"},
      {"sequence": "MSLTGTDFHVGIVGLGSMGMGAARSCLRAGLSTWGADLNPQACANLLAEGACGAAASAREFAGVVDALVILVVNAAQVRQVLFGEDGVAHLMKPGSAVMVSSTISSADAQEIAAALTALNLNMLDAPVSGGAVKAAQGEMTVMASGSEAAFTRLKPVLDAVASNVYRISDTPGAGSTVKIIHQLLAGVHIAAAAEAMALAARAGIPLDVMYDVVTHAAGNSWMFENRMQHVVDGDYTPRSAVDIFVKDLGLVADTAKALRFPLPLASTALNMFTSASNAGYGKEDDSAVIKIFSGEGHHHHHH", "protein production": "not failed"},
      {"sequence": "MSLTKYHDLKNKVIVIAGGIKNLGALTAKTFALESVNLVLHYHQAKDSDTANKLKDELEDQGAKVALYQSDLSNEEEVAKLFDFAEKEFGKVDIAINTVGKVLKKPIVETSEAEFDAMDTINNKVAYFFIKQAAKHMNPNGHIITIATSLLAAYTGFYSTYAGNKAPVEHYTRAASKELMKQQISVNAIAPGPMDTSFFYGQETKESTAFHKSQAMGNQLTKIEDIAPIIKFLTTDGWWINGQTIFANGGYTTREGHHHHHH", "protein production": "not failed"},
      {"sequence": "MSLTSSAELAEVDTLARSLLLYRSRLSEYAHANPGFSGSPADSALGLPAWFRKPVRLQGYIAAGTSYAFIASPPAGLAAAVDAGTESDLVGVRRNGQLVTRRLGAIAIALPAPIPEGAVVAVKEGHHHHHH", "protein production": "not failed"},
      {"sequence": "MSLTSTATDSPLKYYDIGLNLTDPMFHGIYNGKQYHPADYVKLLERAAQRHVKNALVTGSSIAESQSAIELVSSVKDLSPLKLYHTIGVHPCCVNEFADASQGDKASASIDNPSMDEAYNESLYAKVISNPSFAQGKLKELYDLMNQQAKPHDTSFRSIGEIGLDYDRFHYSSKEMQKVFFEEQLKISCLNDKLSSYPLFLHMRSACDDFVQILERFVVGFTDEKDTFQLQKLGASSSSGFYKFHPDRKLVVHSFTGSAIDLQKLLNLSPNIFIGVNGCSLRTEENLAVVKQIPTERLLLETDAPWCEIKRTHASFQYLAKYQEVRDFEYPAFKSVKKNKLADKLNAEELYMVKGRNEPCNMEQVAIVVSEVKDVDLATLIDTTWKTTCKIFGEGHHHHHH", "protein production": "not failed"},
      {"sequence": "MSLTTSKTRKSGVAMTEKLELDPARTAIVLIEYQNEFTSDGGVLHGAVADVMQHTGMLANTVAVVDAARQAGVPIMHAPITFAEGYGELTRHPYGILKGVVDGKAFVKGTWGAAIVDELAPVNGDIVIEGKRGLDTFASTNLDFILRSKGVDTIVLGGFLTNCCVESTMRTGYERGFRVITLTDCVAATSQEEHNNAISYDFPMFSVPMTSADVIAALEGHHHHHH", "protein production": "not failed"}
    ]}
  ]
}
